The numbers were not newly measured in PMC6524963, which cites them from elsewhere.

By pKd is commonly meant the negative decadic logarithm of the Kd, by convention in mol/L.

pKd: −log10 of the molar value. Like-named read-outs stand apart in the source and are kept apart here.

Series [1] concerns the target Ran (Homo sapiens) (UniProt P62826).
For series [2] the target is unchanged. The source holds these as a separate data set.

Turning to “RanBP1/RanBP2 RBD RBD (from UniProt P43487)”, the pKd with Ran (Homo sapiens) [1] was 5.00; in the series with Ran (Homo sapiens) [2], 9.00.
